In the nanobody polyreactivity screen of Harvey et al. (2022):

Assay: yeast display, Sf9 membrane polyspecificity reagent, FACS + sequencing; frameworks hold sequencing errors
Method in brief: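 Genes from sorted yeast were amplified by colony PCR, read by MiSeq 2 × 250 sequencing and filtered on CDR length. These cells carried a synthetic nanobody library in Saccharomyces cerevisiae BJ5465 and were sorted by FACS into low and high (top ~1%) gates on anti-HA and streptavidin fluorescence. Polyreactivity is labelled according to the gate of origin.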

Sequence: QVQLVESGGGLVQAGGILRLSCAASGRIFYGYAMGWYRQAPGKERELVAAISSDGRTYYADSVKGRFTISRDNAKNTVYLQLNSLKPEDTAVYYCAKVPYSGYDYVYWDPSIFEYDYWGQGTQVTVSS
- polyreactivity (PSR sort gate): low polyreactivity

Sequence: QVQLVESGGGLVQAGGSLRLSCAASGLIFGPYAMGWYRQAPGKERELLAASWRGGSTYYADSVKGRFTISRDNAKNTVFLQMNSLKPEDTAVYYCAADVIYSLYYYWGQGTQVTVSS
- polyreactivity (PSR sort gate): low polyreactivity

Sequence: QDQLVESGGGLVHAGGSLRLSSAASGLTFSYYAMGWYRQAPGKERELVAAIDYSGGTTYADSVKGRFTISRDNAKNTVYLQMNSLKPEDTAVYYCADAPDGWFASGDEYWGHGTQVTVSS
- polyreactivity (PSR sort gate): high polyreactivity

Sequence: QVQLVESGGGLVQAGGSLRLSCAASGSTFLPNAMGWYRQAPGTERELVATITFDGGSTYYADSVKGRFTISRDNAKNTVYLQMNSLKPEDTAVYYCNTVELYWRGYDYWGQGTQVTVSS
- polyreactivity (PSR sort gate): high polyreactivity

Sequence: QDLLVDSGGGLLQAGGSLRLSCAASGSIFYTNTMGWYRHAPGKERALVAAISYSDSTTYYADSVKGRFTISRDNAKNSVYLQMNSLKPEDTAVYYCAAQQFYTYYQTYDYWGQGTQVTVSS
- polyreactivity (PSR sort gate): high polyreactivity

Sequence: QVQLVESGGGLVQAGGSLRLSCAASGRTFLLYAMGWYRQAPGKERELVAAISSGGSTYYADSVKGRFTISRDNAKNTVYLQMNSLKPEDTAVYYCNAVYQHLASEYDYWGQGTQVTVSS
- polyreactivity (PSR sort gate): low polyreactivity

Sequence: QVQLVESGGGLVQAGGSLRLSCAASGNIFYRYPMGWYRQAPGKEREMVAAISRSGGSTYYADSVKGRFTISRDNAKNSVYLQRNSLKPEDTAVYYCAAEYQGFWWYGDYDYWGQGTQVTVSS
- polyreactivity (PSR sort gate): high polyreactivity

Sequence: QVQLVESGGGLVQAGGSLRLSCAASGSTFSTNAMGWYRQAPGKERELVARISAGRTNYADSVKGRFTISRDNAKNTVYLQMNSLKPEDTAVYYCNADYQYNRYSRVVGGHYYWGQGTQVTVSS
- polyreactivity (PSR sort gate): low polyreactivity

Sequence: QVQLVESGGGLVQAGGSLRLSCAASGRIFPHYAMGWYRQAPGKERELVAAISSGGRTNYADSVKGRFTISRDNAKNTVYLQMNSLKPEDTAVYYCARRYPGGYYWGQGTQVTVSS
- polyreactivity (PSR sort gate): high polyreactivity

Sequence: QVQIVDSGGGLVQAGGSLRLSCAASGSTFIPNDMGWYRQAPGKERELVAAITVSGDDTYYADSVKGRFTISRDNAKNTVYIQMNSLKPDDTAVYYCNVDDPFYSGVVVFDYWGQGTLVTVSS
- polyreactivity (PSR sort gate): low polyreactivity

Sequence: QVQLVESRAGLVQAGGSLRLSCAASGSTFGYYTMGWYRQAPGKERELVAAITWSGGSSYYADSVKGRFTISRDNAKKTVYLEMNSLKAEDTAVYFGAADDYWTPFGYWGQGTQVTVSA
- polyreactivity (PSR sort gate): low polyreactivity

Sequence: QVQLVDSGGGLVQAGGSLSLSCADSGFIFRAYEMGSYRQAPGNERALVAAISGSGGRTYYSDSVNGRFTISRDNAKNTVYLQKNSLKPEDTAVYYGKADFHYSIPGHAFATVYYWGQGTQVTVSS
- polyreactivity (PSR sort gate): low polyreactivity

Sequence: QVQLVESGGGLVQAGGSLRLSCAASGIIFGRYAMGWYRQAPGKERELVAAISARGGSTYYADSVKGRFTISRDNAKNTVYLHMNSLKPEDTAVYYCAARAVYTQKRYDSWGQGTQVTVSS
- polyreactivity (PSR sort gate): high polyreactivity

Sequence: QVQLVESGGGLVQAGGSLRLSCAAYGSIFSYNAMGWYRPAPGKERELVAAITKSGGRTYYADSVKGRFTISRANAKNTVYLQMNSLKPEDTAVYYCNARSGSQYDYWGQGTQVTVSS
- polyreactivity (PSR sort gate): high polyreactivity

Sequence: QVQLVDSGGGLVQEGGSLRLRCAASGYTFDWYAMGWYRQAPGKERELVAAINSGGGTYYADSVKGRFTISRDNAKNSVYLQMNSLKPEDTAVYYCAKYTYDYWGQGTQVTVSS
- polyreactivity (PSR sort gate): low polyreactivity

Sequence: QVQLVESGGGLVQAGGSLRLSCAASGSILKGYTMGWYRQAPGKERELVAAITQTDNSTNYADSVKGRFTISRDNAKNTVYLQMNSLKPEDTAVYYCAASQLEFRRAFYYWGQGTQVTVSS
- polyreactivity (PSR sort gate): low polyreactivity

Sequence: QVQLVESGGGLVQAGGSLRLSCAASGFIFWYYAMGWYRQAPGKERELVATITRGGSTYYADSVKGRFTISRDNAKNTFYLQMNSLKPEDTAVYYCNAVRPKIYDYWGQGTQVTVSS
- polyreactivity (PSR sort gate): high polyreactivity

Sequence: QVQLVESGAGLVQAGGSLRLCCAASGRIFDWYVMGWYRQAPGKEWELVAAINSGVSTKYADSVKGRFTISRDNAKNTVYLQMNSLKPEDTAVYYCAAQSFSDYRRTGRKSSYYYWGQVTQVTVSS
- polyreactivity (PSR sort gate): low polyreactivity

Sequence: QVQLVESAGGIVQAGGSLRLSCAASGFTFTGYAMGWYRQAPGKEREMVAAINARGTSTYYADSVKGRFTISRDNAKNTVYLQMNSLKPEDTAVYYCNREGRSVSGYYYYWGQGTQVTVSS
- polyreactivity (PSR sort gate): high polyreactivity

Sequence: QVQLVESGGGLVQAGGSLRLSCAASGFIFYGYMGWYRQAPGKERELVAAISYTGGSTYYADSVKGRFTISRDNAKNTVYLQMNSLKPEDTAVYYCARDWRTKWFGYWGQGTQVTVSS
- polyreactivity (PSR sort gate): low polyreactivity

Sequence: QVHLVESGGGLVQAGGSLRLSCAASGRPFYIYAMGWYRPAPGKERELVAAITWSGGTTYYADSVKGRFTISRDTANNTVYLQMNSQKPQDTAVYYCNASFRRGFDYWGQGTQVTVSS
- polyreactivity (PSR sort gate): low polyreactivity

Sequence: QVQLQGSGGGLAQAGDSLRLSSEASGTIFSEYNNGLVSPGAGQRTRTCCRYWCWGNTYYPDSAKGRFTTSLDNAKNTVYLQKNSLKPEDTEVYYCAFNRPYPSRHIYRGQGTQVTVSS
- polyreactivity (PSR sort gate): high polyreactivity

Sequence: QVQLVESGGGLVQAGGSLRLSCAASGRIFSLNAMGWYRQAPGKERELVAGIRKRGGSTYYADSVKGRFTISRDNAKNTVYLQMNSLKPEDTAVYYCAAQPALTYRFYYWGQGTQVTVSS
- polyreactivity (PSR sort gate): high polyreactivity

Sequence: QVQLVESGGGLVQAGGSLRLSCAGSGSTFVVYSIGWYRQAPGKERELVAAITRGGGSTYYAYSVKGRFTISRDNAKNTVYLLMNSLKPEDTAVYYCAAYQLPGLRTSFEYWGQGTQVTVSS
- polyreactivity (PSR sort gate): low polyreactivity

Sequence: QVQLVESGGGLVQAGGSLRLSCAASGFTFRYYAMGWYRQAPGKERELVAAISWSGGRTYYADSVKGRFTISRDNAKNTVYLQMNSLKPEDTAVYYCAADGYPYFYGDFDYWGQGTQVTVSS
- polyreactivity (PSR sort gate): high polyreactivity

Sequence: QLQLVESGGGLVQAGGSLRFSCAASGYISRRYAMVWSIQAPGKERELVAAITGGGGSTYYADSVKGRFTISRDNAKNTVYLQMNSLKPEFTAVYYCNAYWGRSGYAGGYWGQGTQVTVSS
- polyreactivity (PSR sort gate): high polyreactivity

Sequence: QVQLVESGGGLVQAGGSLRLSCAASGSTFIANALGWYRQAPGKEREFVAAITWSGGSTYYADSVKGRFTLSRDNAKNTVFLQMNSLKPEDTAVYYCAKKGRTARGRYDYWGQGTQVTVSS
- polyreactivity (PSR sort gate): low polyreactivity

Sequence: QVQLVESGGGLVQAGGSLRFSCAASGSICGGYAMGWYRQAPGKERELVASITKSGDSTYADSVKGRFTISRDNAKNTVYLQMNSLKPEDTAVYYSAADSTFGNFDYWGQGTQVTVSS
- polyreactivity (PSR sort gate): low polyreactivity

Sequence: QVQLVESGGGLVQAGGSLRLSCAASGFIFGYNGMGGYRQAPGKERELVAGITYSDGSTYYADSVKGRFTISRDNAKNTVYLQMNSLKPEDTAVYYCAVDVIYYWAEDYDYWGQGTQVTVSS
- polyreactivity (PSR sort gate): low polyreactivity

Sequence: QVQLVESGGGLVQAGGSLRLSCAACGSTFRYYAMGWYRQAPGKERELVAAITYSGGSTYYADSVKGRFTISRDNAKNTVYLQMNSLKPEDTAVYYCNADFLPRWYPPPYDYWGQGTQVTVSS
- polyreactivity (PSR sort gate): high polyreactivity

Sequence: QVQLVESGGGLVQAGGSLRLSCAASGSILTRNAMGWYRQAPGKERELVAAISGGGGRTYYADSVKGRFTISRDNAKNTVYLQMNSLKPEDTAVYYCAADDGYSSNEYDYWGQGTQVTVSS
- polyreactivity (PSR sort gate): low polyreactivity

Sequence: QVQLVESGGGLVQAGGSLRLSCAASGSTFGIYAMGWYRQAPGKERELVAAISSGGSTNYADSVKGRFTISRDNAKNTVYLQMNSLKPEDTAVYYCAVESVYEYGGYVDSAYDYWGQGTQLTVSS
- polyreactivity (PSR sort gate): low polyreactivity

Sequence: QVQLVESGGGLVQAGGSLRLSCAASGLIFTPYAMGWYRQAPGKERELVAAISVSGGRTYYADSVKGRFTISRDNAKNTVYLQMNSLKPEDTAVYYCAASDRYGGRDYWGQGTQVTVSS
- polyreactivity (PSR sort gate): high polyreactivity

Sequence: QVQLVESGGGLVQAGGSLRLSCAASGFIFAINAMGWYRQAPGKEREFVAAISSDGASTYYADSVKGRFTISRDNAKNTVYFQMNSLKPEDTAVYYCNAVPYEWTYPYEYYYWGQGTQVTVSS
- polyreactivity (PSR sort gate): low polyreactivity

Sequence: QVQLVESAGGLVQAGGSLRLSCAASGFIFGKNAMGLYRQAPGKERELVAVITRSGSRTYYADSVKGRLTISRDNAKNTVYLQMNSLKPEDTAVYYCATDNVYAYDYWGLGTQVTVSS
- polyreactivity (PSR sort gate): high polyreactivity

Sequence: QVQLVESGGGIVQAGGSLRLSCAASGSIFGSYAMGWYRQAPGKERELVAAITRSGGRTYYADSVKGRFTISRDNAKNTVYLQMNSLKPEDTAVYYCNAKLKLPSGGDYWGQGTQVTVSS
- polyreactivity (PSR sort gate): high polyreactivity

Sequence: QVQLVESGGRLVQAGGSLRLSCAASGRILYVNNMGWYRQAPGKERELVAGITSRVGSTYYADSVKGRFTISRDNAKNTVYLQMNSLKPEDSAVYYCNARSTWRHRRDQVDFDYWGQGTQVSVSS
- polyreactivity (PSR sort gate): low polyreactivity

Sequence: QVQLVESGGGLVQAGGSLRLSCAASGRIFVSNDMGWYRQAPGKERELVAAISWSDDSTHYADSVKGRFTISRDNAKNTVYLQMNSLKPEDTAVYYCNKQRYYSTWRYDYWGQGTQVTVSS
- polyreactivity (PSR sort gate): low polyreactivity

Sequence: QVQLVESGGGLVQAGGSLRLSFAASGRIFLYNTMGWYRQAPGKERELVARISWSGGSTKYADSVKGRFTISRDNAKNTVYLQMNSLKPEDTAVYYCNAGYFTEYNSWGQGTQVTVSS
- polyreactivity (PSR sort gate): high polyreactivity

Sequence: QVQLVESRGGLVQAGGSLRLSCPDSGSNLLSYAMGWYRQAPGKERELVAAITTRDGSTYYADSVKGRFTISRDNAKYTVYLQMTSLKPEDTAVYYCNVDARSSYDYWGQGTQVTVSS
- polyreactivity (PSR sort gate): low polyreactivity

Sequence: QVQLVESGGGLVQAGGSLRLSCAASGFIFPPYDMGWYRQAPGKERELVADITYSDGITYYADSVKGRFTISRDNAMNTVYLQMNSLKPEDTAVYYCNADYSRIGPEVDYWGQGTQVTVSS
- polyreactivity (PSR sort gate): low polyreactivity

Sequence: QVQLVESGGGLVQAGGSLRLICAASGRIFRIYAIGWYRQAPGKERELVARITYSGGSTYYADSVKGRFTISRDNAKNSVYLLMNSLKPEETAVYYCAADWLGYQYGYWGQGTQVTVSS
- polyreactivity (PSR sort gate): low polyreactivity

Sequence: QVQLVESGAGLVQAGGSLRLSCAASGFTFFGDYAMGWYRQAPGKERELVAAIDWSGGTTYYADSVKGRFTISRDNAKNTVYLQMNSLKPEDTAVYYCARRYYYSYPPQEDDYWGQGTQVTVSS
- polyreactivity (PSR sort gate): high polyreactivity
